We go through six molecules from article PMC9046087, “Structural basis of tethered agonism of the adhesion GPCRs ADGRD1 and ADGRF1” (Nature, 2022).

B1: Y668^3.40bA (protein, UniProt Q5T601 20-910, looked up, variant Y668A)
Adhesion G-protein coupled …: GFLGKNDGIKTKKELIVNKKKHLGPVEEYQLLLQVTYRDSKEKRDLRNFLKLLKPPLLWSHGLIRIIRAKATTDCNSLNGVLQCTCEDSYTWFPPSCLDPQNCYLHTAGALPSCECHLNNLSQSVNFCERTKIWGTFKINERFTNDLLNSSSAIYSKYANGIEIQLKKAYERIQGFESVQVTQFRNGSIVAGYEVVGSSSASELLSAIEHVAEKAKTALHKLFPLEDGSFRVFGKAQCNDIVFGFGSKDDEYTLPCSSGYRGNITAKCESSGWQVIRETCVLSLLEELNKNFSMIVGNATEAAVSSFVQNLSVIIRQNPSTTVGNLASVVSILSNISSLSLASHFRVSNSTMEDVISIADNILNSASVTNWTVLLREEKYASSRLLETLENISTLVPPTALPLNFSRKFIDWKGIPVNKSQLKRGYSYQIKMCPQNTSIPIRGRVLIGSDQFQRSLPETIISMASLTLGNILPVSKNGNAQVNGPVISTVIQNYSINEVFLFFSKIESNLSQPHCVFWDFSHLQWNDAGCHLVNETQDIVTCQCTHLTSFSILMSPFVPSTIFPVVKWITYVGLGISIGSLILCLIIEALFWKQIKKSQTSHTRRICMVNIALSLLIADVWFIVGATVDTTVNPSGVCTAAVFFTHFFALSLFFWMLMLGILLAYRIILVFHHMAQHLMMAVGFCLGYGCPLIISVITIAVTQPSNTYKRKDVCWLNWSNGSKPLLAFVVPALAIVAVNFVVVLLVLTKLWRPTVGERLSRDDKATIIRVGKSLLILTPLLGLTWGFGIGTIVDSQNLAWHVIFALLNAFQGFFILCFGILLDSKLRQLLFNKLSALSSWKQTEKQNSSDLSAKPKFSKPFNPLQNKGHYAFSHTGDSSDNIMLTQFVSNE
B2: M675^3.47bA (protein, UniProt Q5T601 20-910, looked up, variant M675A)
Adhesion G-protein coupled …: GFLGKNDGIKTKKELIVNKKKHLGPVEEYQLLLQVTYRDSKEKRDLRNFLKLLKPPLLWSHGLIRIIRAKATTDCNSLNGVLQCTCEDSYTWFPPSCLDPQNCYLHTAGALPSCECHLNNLSQSVNFCERTKIWGTFKINERFTNDLLNSSSAIYSKYANGIEIQLKKAYERIQGFESVQVTQFRNGSIVAGYEVVGSSSASELLSAIEHVAEKAKTALHKLFPLEDGSFRVFGKAQCNDIVFGFGSKDDEYTLPCSSGYRGNITAKCESSGWQVIRETCVLSLLEELNKNFSMIVGNATEAAVSSFVQNLSVIIRQNPSTTVGNLASVVSILSNISSLSLASHFRVSNSTMEDVISIADNILNSASVTNWTVLLREEKYASSRLLETLENISTLVPPTALPLNFSRKFIDWKGIPVNKSQLKRGYSYQIKMCPQNTSIPIRGRVLIGSDQFQRSLPETIISMASLTLGNILPVSKNGNAQVNGPVISTVIQNYSINEVFLFFSKIESNLSQPHCVFWDFSHLQWNDAGCHLVNETQDIVTCQCTHLTSFSILMSPFVPSTIFPVVKWITYVGLGISIGSLILCLIIEALFWKQIKKSQTSHTRRICMVNIALSLLIADVWFIVGATVDTTVNPSGVCTAAVFFTHFFYLSLFFWALMLGILLAYRIILVFHHMAQHLMMAVGFCLGYGCPLIISVITIAVTQPSNTYKRKDVCWLNWSNGSKPLLAFVVPALAIVAVNFVVVLLVLTKLWRPTVGERLSRDDKATIIRVGKSLLILTPLLGLTWGFGIGTIVDSQNLAWHVIFALLNAFQGFFILCFGILLDSKLRQLLFNKLSALSSWKQTEKQNSSDLSAKPKFSKPFNPLQNKGHYAFSHTGDSSDNIMLTQFVSNE
B3: W734^ECL2A (protein, UniProt Q5T601 20-910, looked up, variant W734A)
Adhesion G-protein coupled …: GFLGKNDGIKTKKELIVNKKKHLGPVEEYQLLLQVTYRDSKEKRDLRNFLKLLKPPLLWSHGLIRIIRAKATTDCNSLNGVLQCTCEDSYTWFPPSCLDPQNCYLHTAGALPSCECHLNNLSQSVNFCERTKIWGTFKINERFTNDLLNSSSAIYSKYANGIEIQLKKAYERIQGFESVQVTQFRNGSIVAGYEVVGSSSASELLSAIEHVAEKAKTALHKLFPLEDGSFRVFGKAQCNDIVFGFGSKDDEYTLPCSSGYRGNITAKCESSGWQVIRETCVLSLLEELNKNFSMIVGNATEAAVSSFVQNLSVIIRQNPSTTVGNLASVVSILSNISSLSLASHFRVSNSTMEDVISIADNILNSASVTNWTVLLREEKYASSRLLETLENISTLVPPTALPLNFSRKFIDWKGIPVNKSQLKRGYSYQIKMCPQNTSIPIRGRVLIGSDQFQRSLPETIISMASLTLGNILPVSKNGNAQVNGPVISTVIQNYSINEVFLFFSKIESNLSQPHCVFWDFSHLQWNDAGCHLVNETQDIVTCQCTHLTSFSILMSPFVPSTIFPVVKWITYVGLGISIGSLILCLIIEALFWKQIKKSQTSHTRRICMVNIALSLLIADVWFIVGATVDTTVNPSGVCTAAVFFTHFFYLSLFFWMLMLGILLAYRIILVFHHMAQHLMMAVGFCLGYGCPLIISVITIAVTQPSNTYKRKDVCALNWSNGSKPLLAFVVPALAIVAVNFVVVLLVLTKLWRPTVGERLSRDDKATIIRVGKSLLILTPLLGLTWGFGIGTIVDSQNLAWHVIFALLNAFQGFFILCFGILLDSKLRQLLFNKLSALSSWKQTEKQNSSDLSAKPKFSKPFNPLQNKGHYAFSHTGDSSDNIMLTQFVSNE
B4: W804^6.53bA (protein, UniProt Q5T601 20-910, looked up, variant W804A)
Adhesion G-protein coupled …: GFLGKNDGIKTKKELIVNKKKHLGPVEEYQLLLQVTYRDSKEKRDLRNFLKLLKPPLLWSHGLIRIIRAKATTDCNSLNGVLQCTCEDSYTWFPPSCLDPQNCYLHTAGALPSCECHLNNLSQSVNFCERTKIWGTFKINERFTNDLLNSSSAIYSKYANGIEIQLKKAYERIQGFESVQVTQFRNGSIVAGYEVVGSSSASELLSAIEHVAEKAKTALHKLFPLEDGSFRVFGKAQCNDIVFGFGSKDDEYTLPCSSGYRGNITAKCESSGWQVIRETCVLSLLEELNKNFSMIVGNATEAAVSSFVQNLSVIIRQNPSTTVGNLASVVSILSNISSLSLASHFRVSNSTMEDVISIADNILNSASVTNWTVLLREEKYASSRLLETLENISTLVPPTALPLNFSRKFIDWKGIPVNKSQLKRGYSYQIKMCPQNTSIPIRGRVLIGSDQFQRSLPETIISMASLTLGNILPVSKNGNAQVNGPVISTVIQNYSINEVFLFFSKIESNLSQPHCVFWDFSHLQWNDAGCHLVNETQDIVTCQCTHLTSFSILMSPFVPSTIFPVVKWITYVGLGISIGSLILCLIIEALFWKQIKKSQTSHTRRICMVNIALSLLIADVWFIVGATVDTTVNPSGVCTAAVFFTHFFYLSLFFWMLMLGILLAYRIILVFHHMAQHLMMAVGFCLGYGCPLIISVITIAVTQPSNTYKRKDVCWLNWSNGSKPLLAFVVPALAIVAVNFVVVLLVLTKLWRPTVGERLSRDDKATIIRVGKSLLILTPLLGLTAGFGIGTIVDSQNLAWHVIFALLNAFQGFFILCFGILLDSKLRQLLFNKLSALSSWKQTEKQNSSDLSAKPKFSKPFNPLQNKGHYAFSHTGDSSDNIMLTQFVSNE
B5: H820^7.39bA (protein, UniProt Q5T601 20-910, looked up, variant H820A)
Adhesion G-protein coupled …: GFLGKNDGIKTKKELIVNKKKHLGPVEEYQLLLQVTYRDSKEKRDLRNFLKLLKPPLLWSHGLIRIIRAKATTDCNSLNGVLQCTCEDSYTWFPPSCLDPQNCYLHTAGALPSCECHLNNLSQSVNFCERTKIWGTFKINERFTNDLLNSSSAIYSKYANGIEIQLKKAYERIQGFESVQVTQFRNGSIVAGYEVVGSSSASELLSAIEHVAEKAKTALHKLFPLEDGSFRVFGKAQCNDIVFGFGSKDDEYTLPCSSGYRGNITAKCESSGWQVIRETCVLSLLEELNKNFSMIVGNATEAAVSSFVQNLSVIIRQNPSTTVGNLASVVSILSNISSLSLASHFRVSNSTMEDVISIADNILNSASVTNWTVLLREEKYASSRLLETLENISTLVPPTALPLNFSRKFIDWKGIPVNKSQLKRGYSYQIKMCPQNTSIPIRGRVLIGSDQFQRSLPETIISMASLTLGNILPVSKNGNAQVNGPVISTVIQNYSINEVFLFFSKIESNLSQPHCVFWDFSHLQWNDAGCHLVNETQDIVTCQCTHLTSFSILMSPFVPSTIFPVVKWITYVGLGISIGSLILCLIIEALFWKQIKKSQTSHTRRICMVNIALSLLIADVWFIVGATVDTTVNPSGVCTAAVFFTHFFYLSLFFWMLMLGILLAYRIILVFHHMAQHLMMAVGFCLGYGCPLIISVITIAVTQPSNTYKRKDVCWLNWSNGSKPLLAFVVPALAIVAVNFVVVLLVLTKLWRPTVGERLSRDDKATIIRVGKSLLILTPLLGLTWGFGIGTIVDSQNLAWAVIFALLNAFQGFFILCFGILLDSKLRQLLFNKLSALSSWKQTEKQNSSDLSAKPKFSKPFNPLQNKGHYAFSHTGDSSDNIMLTQFVSNE
B6: N827^7.46bA (protein, UniProt Q5T601 20-910, looked up, variant N827A)
Adhesion G-protein coupled …: GFLGKNDGIKTKKELIVNKKKHLGPVEEYQLLLQVTYRDSKEKRDLRNFLKLLKPPLLWSHGLIRIIRAKATTDCNSLNGVLQCTCEDSYTWFPPSCLDPQNCYLHTAGALPSCECHLNNLSQSVNFCERTKIWGTFKINERFTNDLLNSSSAIYSKYANGIEIQLKKAYERIQGFESVQVTQFRNGSIVAGYEVVGSSSASELLSAIEHVAEKAKTALHKLFPLEDGSFRVFGKAQCNDIVFGFGSKDDEYTLPCSSGYRGNITAKCESSGWQVIRETCVLSLLEELNKNFSMIVGNATEAAVSSFVQNLSVIIRQNPSTTVGNLASVVSILSNISSLSLASHFRVSNSTMEDVISIADNILNSASVTNWTVLLREEKYASSRLLETLENISTLVPPTALPLNFSRKFIDWKGIPVNKSQLKRGYSYQIKMCPQNTSIPIRGRVLIGSDQFQRSLPETIISMASLTLGNILPVSKNGNAQVNGPVISTVIQNYSINEVFLFFSKIESNLSQPHCVFWDFSHLQWNDAGCHLVNETQDIVTCQCTHLTSFSILMSPFVPSTIFPVVKWITYVGLGISIGSLILCLIIEALFWKQIKKSQTSHTRRICMVNIALSLLIADVWFIVGATVDTTVNPSGVCTAAVFFTHFFYLSLFFWMLMLGILLAYRIILVFHHMAQHLMMAVGFCLGYGCPLIISVITIAVTQPSNTYKRKDVCWLNWSNGSKPLLAFVVPALAIVAVNFVVVLLVLTKLWRPTVGERLSRDDKATIIRVGKSLLILTPLLGLTWGFGIGTIVDSQNLAWHVIFALLAAFQGFFILCFGILLDSKLRQLLFNKLSALSSWKQTEKQNSSDLSAKPKFSKPFNPLQNKGHYAFSHTGDSSDNIMLTQFVSNE

For this data set, the system named is ADGRF1. Briefly: Cell-surface expression by flow cytometry, ADGRF1. The settings on record: ADGRF1 constructs (pF1 Gi part of table), anti-Flag antibody, three independent measurements in duplicate. The class given is cell-based, human. The method, then:
The wild-type ADGRD1 and ADGRF1 and mutants used in functional studies were constructed into a pTT5 vector with a Flag tag at the N terminus for receptor expression measurement. The basal activity of ADGRD1 and ADGRF1 in mediating Gs signalling was measured by a cAMP accumulation assay using a LANCE Ultra cAMP detection kit (PerkinElmer) following the manufacturer’s instruction. In brief, 2 ml HEK293F cells (Invitrogen; cells were routinely tested for mycoplasma contamination) at a density of 1.2 × 10^6 cells per ml were transiently transfected with 2,000 ng plasmid of the wild-type or mutant receptor and cultured at 37 °C for 48 h with 5% CO2 atmosphere in a shaker shaking at 220 rpm. After collection, the cell-surface expression of the receptors was measured by incubating 10 μl cells with 15 μl monoclonal anti-Flag M2-FITC antibody (Sigma; 1:120 diluted in TBS supplemented with 4% BSA and 20% viability staining solution 7-AAD (Invitrogen)) at 4 °C for 20 min. After incubation, 175 μl TBS buffer was added and the fluorescent signal was measured using a flow cytometry reader (Guava easyCyte HT, Millipore).
A general note: Flow cytometry measures light scatter and fluorescence of single cells or particles in a stream.
On to B1, for which the “Cell-surface expression (% of WT)” value is on record as 67 ± 1 % of WT. For the molecule B2, the “Cell-surface expression (% of WT)” value was 107 ± 2 % of WT. For B3 the value was 87 ± 1 % of WT; for B4, 93 ± 4 % of WT; for B5, 77 ± 1 % of WT. As to B6, the “Cell-surface expression (% of WT)” value is listed as 97 ± 21 % of WT.
